# Measured values published in the Human Domainome abundance scans (Beltran et al. 2025).
# ± gives the uncertainty stated by the source.
# Assay: abundance fitness (aPCA) (normalised: wild type 0, dead -1); higher = more abundant; growth selection in yeast, the domain comes from the species named
# Settings: Homo sapiens
row,Substance,abundance fitness
1,"Scaffold attachment factor B2 L30F, Q14151",-0.3 ± 0.12
2,"Scaffold attachment factor B2 L30G, Q14151",-0.281 ± 0.084
3,"Scaffold attachment factor B2 L30I, Q14151",0.038 ± 0.14
4,"Scaffold attachment factor B2 L30K, Q14151",-0.461 ± 0.12
5,"Scaffold attachment factor B2 L30M, Q14151",-0.036 ± 0.12
6,"Scaffold attachment factor B2 L30P, Q14151",-0.451 ± 0.14
7,"Scaffold attachment factor B2 L30Q, Q14151",-0.284 ± 0.14
8,"Scaffold attachment factor B2 L30R, Q14151",-0.272 ± 0.072
9,"Scaffold attachment factor B2 L30S, Q14151",-0.233 ± 0.095
10,"Scaffold attachment factor B2 L30T, Q14151",-0.345 ± 0.14
11,"Scaffold attachment factor B2 L30W, Q14151",-0.771 ± 0.076
12,"Scaffold attachment factor B2 L30Y, Q14151",-0.086 ± 0.12
13,"Scaffold attachment factor B2 L33C, Q14151",-0.758 ± 0.12
14,"Scaffold attachment factor B2 L33D, Q14151",-0.307 ± 0.12
15,"Scaffold attachment factor B2 L33E, Q14151",-0.072 ± 0.093
16,"Scaffold attachment factor B2 L33F, Q14151",-0.106 ± 0.23
17,"Scaffold attachment factor B2 L33G, Q14151",-0.237 ± 0.076
18,"Scaffold attachment factor B2 L33H, Q14151",-0.46 ± 0.25
19,"Scaffold attachment factor B2 L33K, Q14151",-0.319 ± 0.11
20,"Scaffold attachment factor B2 L33M, Q14151",0.182 ± 0.11
21,"Scaffold attachment factor B2 L33N, Q14151",-0.301 ± 0.3
22,"Scaffold attachment factor B2 L33Q, Q14151",-0.24 ± 0.096

row,Substance,abundance fitness
1,"Scaffold attachment factor B2 L33R, Q14151",-0.331 ± 0.075
2,"Scaffold attachment factor B2 L33S, Q14151",-0.138 ± 0.097
3,"Scaffold attachment factor B2 L33T, Q14151",-0.268 ± 0.1
4,"Scaffold attachment factor B2 L33V, Q14151",-0.204 ± 0.072
5,"Scaffold attachment factor B2 L33W, Q14151",-0.103 ± 0.096
6,"Scaffold attachment factor B2 L33Y, Q14151",-0.33 ± 0.32
7,"Scaffold attachment factor B2 L38A, Q14151",-0.316 ± 0.077
8,"Scaffold attachment factor B2 L38C, Q14151",-0.532 ± 0.1
9,"Scaffold attachment factor B2 L38D, Q14151",-0.746 ± 0.11
10,"Scaffold attachment factor B2 L38F, Q14151",-0.455 ± 0.2
11,"Scaffold attachment factor B2 L38G, Q14151",-0.664 ± 0.07
12,"Scaffold attachment factor B2 L38H, Q14151",-0.578 ± 0.13
13,"Scaffold attachment factor B2 L38I, Q14151",-0.141 ± 0.13
14,"Scaffold attachment factor B2 L38K, Q14151",-0.694 ± 0.12
15,"Scaffold attachment factor B2 L38M, Q14151",-0.139 ± 0.12
16,"Scaffold attachment factor B2 L38N, Q14151",-0.509 ± 0.17
17,"Scaffold attachment factor B2 L38P, Q14151",-0.637 ± 0.1
18,"Scaffold attachment factor B2 L38R, Q14151",-0.787 ± 0.076
19,"Scaffold attachment factor B2 L38S, Q14151",-0.506 ± 0.094
20,"Scaffold attachment factor B2 L38T, Q14151",-0.544 ± 0.099
21,"Scaffold attachment factor B2 L38V, Q14151",-0.863 ± 0.076
22,"Scaffold attachment factor B2 L38W, Q14151",-0.791 ± 0.092
